Like-named read-outs stand apart in the source and are kept apart here. Square brackets hold non-standard residues; d marks the D form. * marks the point of attachment. Biotin = O=C1N[C@H]2[C@H](CS[C@H]2CCCCC(=O)*)N1; d(pT) = C[C@H](OP(=O)(O)O)[C@@H](N)C(=O)O; pT = C[C@@H](OP(=O)(O)O)[C@H](N)C(=O)O; 2Nal = N[C@@H](Cc1ccc2ccccc2c1)C(=O)O; Bta = N[C@@H](Cc1csc2ccccc12)C(=O)O; Pip = O=C(O)[C@@H]1CCCCN1; Bth = benzothiophene
How the values were obtained:
[1] = target: T1, interaction of MPM-2 antigens with GST-hPin1 (Homo sapiens, UniProt Q13526); test: MPM-2 competition assay; assay type: binding; conditions: mitotic HeLa cell lysate, 8 μM GST-hPin1
T1 construct: made in house
T1 sequence (Q13526 whole entry): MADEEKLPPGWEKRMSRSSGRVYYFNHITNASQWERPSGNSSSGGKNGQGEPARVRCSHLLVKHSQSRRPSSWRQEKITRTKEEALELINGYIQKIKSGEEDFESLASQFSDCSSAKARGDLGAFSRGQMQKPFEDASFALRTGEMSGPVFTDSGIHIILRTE
Experimental: FIG. 7 depicts the influence of peptide 17 on the interaction of MPM-2 antigens with hPin1. The indicated concentration of peptide 17 or its nonphosphorylated derivative (control) was incubated with an 8 μM solution of GST-hPin1. After addition of mitotic HeLa cell lysate, GST-hPin1 was extracted from the respective mixture using glutathione sepharose. Samples were analyzed regarding extracted GST-hPin1 and coprecipitated MPM-2 antigenes by SDS PAGE and western blot analysis. Untreated lysate of mitotic HeLa cells was loaded on the first line (extract). MPM-2 antigenes were detected using the monoclonal anti MPM-2 antibody (mouse). GST-hPin1 was detected using an anti hPin1 PPIase domain antiserum (rabbit). Horseradish peroxidase-conjugated antibodies from mouse or rabbit were used as secondary antibodies. […]
1.3 mM of Peptide 17 or its nonphosphorylated derivative were incubated with GST-hPin1 (8 μM) for 2 hours at 4° C. […] Following SDS-PAGE, the samples were analyzed by western blot analysis. GST-hPin1 and coextracted MPM-2 antigens were detected using an anti hPin1 PPIase domain antiserum (rabbit) or monoclonal anti MPM-2 antibody (Upstate Biotechnology) from mouse. […]
MPM-2 antigens are mitotic phosphoproteins that are specifically recognized by the monoclonal antibody MPM-2. […] The coextracted MPM-2 antigenes were detected after SDS PAGE by western blot analysis using the anti MPM-2 antibody. […]

X. laevis embryos = test: Microinjection in X. laevis embryos, cell division; assay type: in vivo; conditions: microinjection at stage 2
Experimental: FIG. 8 depicts the blocking of cell division by the injection of peptide 17 in X. laevis embryos. 50-300 pmol of peptide 17 or 300 pmol of its nonphosphorylated derivative (control) dissolved in 10 nl PBS buffer were microinjected in the animal half of X. laevis embryos at stage 2 of development. Embryos with large and/or apoptotic appearing cells surrounded by normally developing cells were counted after further 5 hours (stage 8-9) of development. […] Each value is the average of four independent experiments.
FIGS. 9A-F depicts phenotypic analysis of X. laevis embryos after injection of peptide 17. 300 pmol of peptide 17 or its nonphosphorylated derivative dissolved in 10 nl PBS buffer were injected in the animal half of X. laevis embryos at stage 2 of development. 1.5 hour at stage 6 (A), 2.5 hours at stage 7 (B) and 4-5 hours at stage 8-9 (C, D) after injection enlarged cells became visible. Cells that are blocked in cell division are marked with a white arrow. Controls of uninjected embryos of stage 8-9 and embryos that were injected with 300 pmol of the nonphosphorylated derivative of peptide 17 are shown in panels E and F. The site where the nonphosphorylated derivative of peptide 17 was injected is marked with a white arrow (F).
FIGS. 10A-D depict the rescue of peptide 17 caused cell division block in X. laevis embryos by hPin1 (A, B) and different hPin1 variants (C, D). FIG. 10A depicts the time course of V5-tagged hPin1 expression was analyzed by preparation of X. laevis embryo lysate 1, 2 and 4 hours after injection of 1, 2 or 3 ng of V5-tagged hPin1 mRNA. In every case, the injected volume was 10 nl. Lysates were prepared in lysis buffer containing phosphatase and protease inhibitors. Samples were separated by SDS PAGE followed by western blotting. Endogenous XlPin1 and V5-tagged hPin1 were detected using an anti hPin1 PPIase domain antiserum as primary antibody followed by incubation with a horseradish peroxidase-conjugated secondary antibody. Visualization was done using the SuperSignal® substrate. […] In every case, the whole volume of injection was 10 nl. The indicated amount of the mRNA was injected in the animal half of 30 embryos at stage 2 of development. Embryos with large and/or apoptotic appearing cells surrounded by normally developed cells were counted after additional 5 hours of development (stage 8-9). […] Each percentage of vital embryos shown in the figure is the average of four independent experiments. FIG. 10C indicates the expression of V5-tagged hPin1 variants was evaluated by preparation of embryo lysate after 4 hours of injection of the respective mRNA (2 ng) in X. laevis embryos. Lysates were prepared in lysis buffer containing phosphatase and protease inhibitors. Samples were separated using SDS PAGE followed by western blot analysis. Endogenous XlPin1 and injected V5-tagged hPin1 variants were detected using an anti hPin1 PPIase domain antiserum as primary antibody and a horseradish peroxidase-conjugated secondary antibody. Visualization was done by a chemiluminescent reaction using the SuperSignal® substrate (Pierce). FIG. 10D depicts 250 pmol of peptide 17 was coinjected with 2 ng mRNA of the indicated V5-tagged hPin1 variant (whole volume 10 nl) in the animal half of 30 X. laevis embryos at stage 2 of development. Results were analyzed as described for FIG. 10B. Each percentage of vital embryos shown in the figure is the average of four independent experiments.
Microinjection was done into the animal half of X. laevis embryos at stage 2 of development. In every case, the injection volume was 10 nl. Immunofluorescence studies of frozen X. laevis embryo sections were performed as previously described (Julius et al., 2000). Ten-micrometer cryosections of stage 8 embryos were labelled using a monoclonal anti hPin1 antibody (mouse) followed by incubation with Alexa Fluor 546™-conjugated anti mouse antibody of goat serum (Molecular Probes). […]

hPar14 = hPar14 (Homo sapiens, UniProt Q9Y237); test: Protease coupled PPIase assay, hPar14; assay type: biochemical; conditions: up to 50 μM
hPar14, sequence (Q9Y237 whole entry): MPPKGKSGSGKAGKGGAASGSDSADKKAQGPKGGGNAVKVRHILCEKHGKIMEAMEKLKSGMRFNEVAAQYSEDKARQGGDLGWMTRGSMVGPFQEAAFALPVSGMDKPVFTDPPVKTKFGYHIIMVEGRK
Experimental: FIG. 6 depicts the influence of peptide 17 on the hPar14 PPIase activity. The apparent first order rate constant kobs determined for the cis to trans isomerization of the arginyl-prolyl peptide bond of the substrate Suc-Ala-Arg-Pro-Phe-NH-Np (SEQ ID NO: 3) was measured using the protease coupled PPIase assay. α-Chymotrypsin was used as isomer specific protease. As control, the nonphosphorylated derivative of peptide 17 was used.
PPIase activities were monitored on a Hewlett-Packard 8452A diode array spectrophotometer according to Fischer et al., 1984 and Zhang et al., 2002. The hPar14 PPIase activity was measured with Suc-Ala-Arg-Pro-Phe-NH-Np (SEQ ID NO: 3) (final concentration 75 μM) as substrate and α-chymotrypsin (final concentration 60 μM) as isomer specific protease. PPIase activity of hCyp 18 and FKBP12 were measured using Suc-Ala-Ala-Pro-Phe-NH-Np (SEQ ID NO: 7) as substrate (final concentration 16 μM) and α-chymotrypsin (final concentration 60 μM) as isomer specific protease. PPIase activity of hPin1 was measured with Ac-Ala-Ala-Ser(PO3H2)-Pro-Arg-NH-Np (SEQ ID NO: 4) (final concentration 10 μM) as substrate and trypsin (final concentration 60 μM) as isomer specific protease. Final concentrations of the PPIases were 1.7 μM for hPar14, 4 nM for hPin1, 7 nM for FKBP12 and 9.7 nM for hCyp18. […] Measurements were monitored at 390 nm. […]

full-length hPin1 [2] = target: T2, full-length hPin1 (human, UniProt Q13526 1-163); test: comparison of Kd values
T2 sequence (Q13526 whole entry): as the sequence (Q13526 whole entry) above

full-length hPin1 [3] = target: T2, full-length hPin1; test: isothermal titration calorimetry, single binding site model
full-length hPin1 [4] = target: T2, full-length hPin1; test: method not stated there (ITC value of paragraph 223 rounded); D isomer
full-length hPin1 [5] = target: T2, full-length hPin1; test: isothermal titration calorimetry, 10 °C, full-length hPin1 in the cell
full-length hPin1 [6] = target: T2, full-length hPin1; test: cell-based or functional assay
full-length hPin1 [7] = target: T2, full-length hPin1; test: inhibition of PPIase activity
full-length hPin1 [8] = target: T2, full-length hPin1; test: cell-based or functional assay; remark: listed apart in the source
full-length hPin1 [9] = target: T2, full-length hPin1; test: cell-based or functional assay; remark: listed apart in the source

“nonphosphorylated derivative of peptide 17: nonphosphorylated derivative of peptide 17, used as control (Ac-F[dT][Pip][2Nal]Q-NH2) [reference compound]” was tested, and the “influence on interaction of MPM-2 antigenes with GST-hPin1” value [1] was “had no effect”, the “effect on development of the embryos” value (X. laevis embryos) was “no visible effect” and the “inhibition of hPar14 PPIase activity” value (hPar14) was “No inhibition”.

“peptide 17, Ac-Phe-D-Thr(PO3H2)-Pip-Nal-Gln-NH2” showed a fold tighter binding against Ac-Phe-L-Thr(PO3H2)-Pip-Nal-Gln-NH2 (full-length hPin1 [2]) of 30 fold, a Ka (full-length hPin1 [3]) of 5.18e+07 M⁻¹ and a n (binding stoichiometry) (full-length hPin1 [3]) of 0.96. The Kd (full-length hPin1 [4]) was 19 nM, the binding enthalpy ΔHbind (full-length hPin1 [5]) was -4.56 kcal/mol and the binding entropy TΔSbind (full-length hPin1 [5]) was 5.43 kcal/mol.

B1: peptide 15, Ac-Lys(N^ε-biotinoyl)-Ala-Ala-Bth-Thr(PO3H2)Pip-Nal-Gln-NH2 (peptide)
peptide: Ac-K(Biotin)AA[Bth][pT][Pip]AQ-NH2
modifications: not fully specified (residue 7); printed as Ac-Lys(N^ε-biotinoyl)-Ala-Ala-Bth-Thr(PO3H2)Pip-Nal-Gln-NH2
B1 was tested, and the IC50(µM), blockade of the PPIase activity of hPin1, protease free PPIase assay (full-length hPin1 [6]) was 0.21 µM.

B2: peptide 16, Ac-Lys(N^ε-biotinoyl)-Ala-Ala-Bth-D-Thr(PO3H2)-Pip-Nal-Gln-NH2 (peptide)
peptide: Ac-K(Biotin)AA[Bta][d(pT)][Pip][2Nal]Q-NH2
Molecule B2 has a fold decrease of Ki against peptide 15 (full-length hPin1 [7]) of 150 fold.

B3: peptide 4 (peptide)
peptide: Ac-K(Biotin)AA[Bta][pT]P[2Nal]Q-NH2
With B3 the “IC50(µM), blockade of the PPIase activity of hPin1, protease free PPIase assay” value (full-length hPin1 [8]) was 20 µM and the “fold decrease of inhibition of hPin1 PPIase activity against peptide 15” value (full-length hPin1 [9]) was 100 fold.

Source: patent US8258099B2, “Pin1-modulating compounds and methods of use thereof” (Max-Planck-Gesellschaft zur Foerderung der Wissenschaften …, priority 2004, dated 2012)
